Test results: patent US20160031999A1 (CSL, published 2016)
Numbering of substitutions follows the chain as printed. Blank lines part the entries; values can stand above or below the binder they belong to.

Assays:
[1] = molecular target: T1, A178S mutant of soluble human IL-11Rα (SEQ ID NO: 99) (human, UniProt Q14626 23-318); experiment: Biacore, antibody captured on anti-human IgG Fc, receptor injected; mean ± SE, N = 4
T1 sequence: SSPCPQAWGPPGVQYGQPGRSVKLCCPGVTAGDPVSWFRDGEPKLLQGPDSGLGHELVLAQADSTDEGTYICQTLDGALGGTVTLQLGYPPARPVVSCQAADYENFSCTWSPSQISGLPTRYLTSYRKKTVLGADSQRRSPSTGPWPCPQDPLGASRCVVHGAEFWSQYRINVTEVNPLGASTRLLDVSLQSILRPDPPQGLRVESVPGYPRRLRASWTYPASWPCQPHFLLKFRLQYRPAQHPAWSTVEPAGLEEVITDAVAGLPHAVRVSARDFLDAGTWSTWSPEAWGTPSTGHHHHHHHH
Procedure: (§1) Various point mutants of soluble forms of IL-11R were produced in which amino acids from mIL-11 were introduced into a soluble form of hIL-11 (SEQ ID NO: 85) (see Table 5 for positions of mutations relative to SEQ ID NO: 1 and for reference to the SEQ ID NO: of each polypeptide) and the binding of antibodies to those polypeptides or to polypeptides of SEQ ID NO: 3 or SEQ ID NO: 85 was determined using Biacore analysis or FACS.
(§2) Anti human IgG Fc specific antibody was chemically immobilized on a CM5 chip to ˜9000 RU. Antibodies were captured at about 0.3-1 μg/ml for 120 seconds on 2 spots in each flow cell. Adjacent spots consisting of only anti human IgG were used as a reference. IL-11 receptors were injected over the captured antibodies and reference spots at 40, 10, 5 and 2.5 nM in duplicate. Blank injections of buffer only were also performed in duplicate. Injection was performed for 3 minutes and dissociation monitored for a further 5 minutes.

[2] = molecular target: T2, K66R mutant of soluble human IL-11Rα (SEQ ID NO: 96) (human, UniProt Q14626 23-318); experiment: as above
T2 construct: also called K44R
T2 sequence: T1 sequence with K44R, S156A
Procedure: as §1, §2

[3] = molecular target: T3, P65S mutant of soluble human IL-11Rα (SEQ ID NO: 97) (human, UniProt Q14626 23-318); experiment: as above
T3 sequence: T1 sequence with P43S, S156A
Procedure: as §1, §2

[4] = molecular target: T4, L101S mutant of soluble human IL-11Rα (SEQ ID NO: 98) (human, UniProt Q14626 23-318); experiment: as above
T4 sequence: T1 sequence with L79S, S156A
Procedure: as §1, §2

[5] = molecular target: T5, polypeptide of SEQ ID NO: 3 (amino acids 23 to 363 of human IL-11Rα, serine at position 248, 8×HIS tag) (human, UniProt Q14626 23-363); experiment: Biacore, antibody captured on anti-human IgG Fc, receptor injected; mean ± SE, N = 3
T5 construct: also called WT F/L
T5 sequence: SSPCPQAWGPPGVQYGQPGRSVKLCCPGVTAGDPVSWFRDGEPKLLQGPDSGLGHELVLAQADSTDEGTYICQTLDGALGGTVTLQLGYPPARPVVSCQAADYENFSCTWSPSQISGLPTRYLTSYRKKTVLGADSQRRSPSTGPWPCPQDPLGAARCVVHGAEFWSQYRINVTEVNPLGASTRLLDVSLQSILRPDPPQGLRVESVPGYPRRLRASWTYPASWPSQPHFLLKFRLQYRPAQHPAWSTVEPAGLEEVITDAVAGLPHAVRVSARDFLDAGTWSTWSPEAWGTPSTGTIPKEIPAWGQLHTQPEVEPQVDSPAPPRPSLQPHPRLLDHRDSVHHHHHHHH
Procedure: as §1, §2

[6] = molecular target: T6, polypeptide of SEQ ID NO: 85 (amino acids 23 to 318 of human IL-11Rα, serine at position 248, 8×HIS tag) (human, UniProt Q14626 23-318); experiment: Biacore, antibody captured on anti-human IgG Fc, receptor injected; mean ± SE
T6 construct: also called WT D1/2; truncated hIL-11R
T6 sequence: T1 sequence with S156A, C226S
Procedure: as §1, §2

Kd [1]: 0.6 nM
Kd [2]: 1.3 nM
Kd [3]: 0.67 nM
Kd [4]: 0.7 nM
Kd [5]: 1 nM
Kd [6]: 0.58 nM
B1: antibody 8D10 (antibody, human IgG4 S228P, kappa, V domains shown)
VH: EVQLLESGGGLVQPGGSLRLSCAASGFTFSRYMMGWVRQAPGKGLEWVSSIVPSGGITIYADSVKGRFTISRDNSKNTLYLQMNSLRAEDTAVYYCARDHMGIVATDWGQGTLVTVSS
VL: DIQMTQSPSSLSASVGDRVTITCQASQDITNYLNWYLHKPGKAPKLLIYDASNLQTGVPSRFSGSGSGTDFTFTITSLQPEDFGTYYCQQYDTLHPSFGPGTTVDIKR

Kd [1]: 2.63 nM
Kd [2]: 5.6 nM
Kd [3]: 2.71 nM
Kd [4]: 2.98 nM
Kd [5]: 4 nM
Kd [6]: 2.78 nM
B2: antibody 8E4 (antibody, human IgG4 S228P, lambda, V domains shown)
VH: EVQLLESGGGLVQPGGSLRLSCAASGFTFSWYFMGWVRQAPGKGLEWVSYIYPSGGSTGYADSVKGRFTISRDNSKNTLYLQMHSLRAEDTAVYYCARDEGYCSSTSCYFDAFDIWGQGTMVTVSS
VL: QSALTQPPSASGSPGQSVAISCTGTSSDVGGYNFVSWYQQHPGKAPKLLIYEVTKRPSGVPDRFSGSKAGNTASLTVSGLQAEDEADYYCSSYGGSNNAGVFGTGTKVTVLG
